Assay results published in patent publication WO2021136808A1 (dated 2021).

Target: T1, human CTLA-4 (AA Ala37-Ser160) - Fc Tag fusion protein (AcroBiosystem, catalog no. CT4-H5255) (human, UniProt P16410 37-160)
T1 construct: range 37-160; Bought reagent, coated to the ELISA plate wells as capture reagent; also called human CTLA-4 - Fc Tag fusion protein; not shown: Fc tag
T1 sequence (looked up): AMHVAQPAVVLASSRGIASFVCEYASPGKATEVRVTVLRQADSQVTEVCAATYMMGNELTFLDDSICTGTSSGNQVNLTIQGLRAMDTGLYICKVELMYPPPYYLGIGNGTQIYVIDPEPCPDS
Assay: in-house sandwich ELISA, CTLA-4-Fc coated on plate, HHC MET in rat plasma

B1: HHC MET (VHH)
chain: EVQLVESGGGLVQAGGSLRLSCAASGGTFSFYGMGWFRQAPGKEQEFVADIRTSAGRTYYADSVKGRFTISRDNAKNTVYLQMNSLKPEDTAVYYCAAEMSGISGWDYWGQGTQVTVSSGGGGSGGGSEVQLVESGGGLVQAGGSLRLSCAASGGTFSFYGMGWFRQAPGKEQEFVADIRTSAGRTYYADSVKGRFTISRDNAKNTVYLQMNSLKPEDTAVYYCAAEMSGISGWDYWGQGTQVTVSS
notes: Single polypeptide expressed in E. coli; In the ELISA it stood as free protein in rat plasma (calibration standards and samples); also called free HHC MET
Does B1 bind?
Result: binds
